The results in this text go back to US20130129845A1, “SCREENING METHOD FOR CHRONIC INFLAMMATION INHIBITORS OR CANCER METASTASIS INHIBITORS USING INHIBITION OF BINDING BETWEEN EMMPRIN AND S100A9 AS INDEX” (priority 2010, published 2013).

One assay deals with T1, EMMPRIN (Homo sapiens, UniProt P35613).
T1 construct: cDNA coding for the human EMMPRIN extracellular domain (with a myc-HA-Flag-6His tag added at the C-terminus); made in house; host or cells: HEK293 (transfected)
T1 sequence (P35613 138-325 limits assumed): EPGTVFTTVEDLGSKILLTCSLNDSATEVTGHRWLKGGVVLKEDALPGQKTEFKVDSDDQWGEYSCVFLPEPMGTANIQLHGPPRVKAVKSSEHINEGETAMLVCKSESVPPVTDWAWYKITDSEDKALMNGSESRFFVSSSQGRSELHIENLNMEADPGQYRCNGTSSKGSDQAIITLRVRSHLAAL
Kind of assay: Identification of EMMPRIN-binding proteins by immunoprecipitation and Western blotting. The settings on record: culture supernatants mixed; HA and Myc antibody; FIG. 6. The source says:
EMMPRIN-binding proteins were identified by immunoprecipitation and Western blotting, for confirmation that EMMPRIN is a novel receptor for S100 protein. […] The S100 proteins used were S100A8 and S100A9 protein. HEK293 cells were transfected with plasmids coding for the proteins (with HA tags attached to the C-termini), and the proteins were isolated from the respective culture supernatants.
In order to analyze binding between EMMPRIN and S100A8 and S100A9 protein, the culture supernatants containing the respective proteins were mixed and reacted, and then HA antibody and Myc antibody were used for immunoprecipitation.
(In general: Immunoblotting shows a protein as a band on a membrane.)

The subject of assay [1] is IL-8 (CXCL-8), TNFα, IL1-F9 and CXCL-1 expression. As to the kind of experiment: Cytokine expression in keratinocytes (NHEK) by real-time quantitative PCR. To be noted: S100A9-added sample with control siRNA (A9/LF); FIG. 4. The assay is classed as cell-based, human. The procedure:
(§1) Using real-time quantitative PCR, it was then investigated whether addition of S100A9 also accelerates expression of IL-8 (CXCL-8), TNFα, IL1-F9 and CXCL-1, and whether suppressing expression of EMMPRIN has any effect on expression of these cytokines. The same method was also used to examine the effect of S100A9 stimulation on MMP-1 and MMP-10 expression.
(§2) Growth-phase NHEK, cultured in EpiLife™-KG2 (Cascade Biologies) were exposed for 3 hours after exchanging to the same culture medium containing and not containing 2 mM calcium chloride and S100A8 or S100A9 (10 μg/ml each), and a MagNA™ Pure mRNA extraction kit and a MagNA Pure™ device (Roche Diagnostics, Tokyo, Japan) were used for extraction of the mRNA. The obtained mRNA was reverse transcripted using SuperScript™ II (Invitrogen Corporation, Carlsbad, Calif., U.S.). Real-time quantitative PCR was performed on a LightCycler high-speed thermal cycler system using a LightCycler FastStart DNA master SYBR green I kit (Roche Diagnostics), according to the manufacturer's instructions. […] The expression level of each gene was quantitatively analyzed using LightCycler analysis software (NPL 11: Morrison T B et al., Biotechniques (1998)24:954-958, 960, 962). […]

In assay [2] the test system is MMP-1 and MMP-10 expression. As to the kind of experiment: MMP expression in keratinocytes by real-time quantitative PCR. Format: cell-based, human. To be noted: FIG. 5. The procedure:
as §1, §2

A further assay deals with MMP-1 expression. As to the kind of experiment: Effect of soluble EMMPRIN on MMP expression in keratinocytes. Format: cell-based, human. The text has this: It was therefore investigated whether soluble EMMPRIN actually accelerates expression of MMP.
It is believed that MMP expression was suppressed when soluble EMMPRIN and S100A9 were both present because S100A9 which induces MMP production was scavenged by soluble EMMPRIN, with both forming a bonded complex.

Take “S100A8: EF-hand calcium-binding S100 family protein”: in the assay with EMMPRIN, the “binding to EMMPRIN (band in Western blot after immunoprecipitation)” value is on record as “only a band for EMMPRIN near 32 kDa was confirmed”.
Consider “S100A9: EF-hand calcium-binding S100 family protein, added to keratinocytes as stimulus”, for which, in assay [1], the “expression of cytokines (IL-8, TNFα, IL1-F9, CXCL-1) on addition of S100A9” value was “induced expressed of all of the cytokines”. In assay [2], the “expression of MMP on addition of S100A9” value was “accelerated expression of MMP”. Also, the MMP-1 expression entry in the assay on MMP-1 expression (S100A9 alone, FIG. 7) is on record as “notably accelerated”. Besides, in the assay with EMMPRIN, the “binding to EMMPRIN (band in Western blot after immunoprecipitation)” value is recorded as “a band representing their bound form was confirmed near 47.5 kDa”.

B1: soluble EMMPRIN: purified recombinant human EMMPRIN extracellular domain with myc-HA-Flag-6His tag at the C-terminus (protein, UniProt P35613 138-323, looked up)
extracellular domain: EPGTVFTTVEDLGSKILLTCSLNDSATEVTGHRWLKGGVVLKEDALPGQKTEFKVDSDDQWGEYSCVFLPEPMGTANIQLHGPPRVKAVKSSEHINEGETAMLVCKSESVPPVTDWAWYKITDSEDKALMNGSESRFFVSSSQGRSELHIENLNMEADPGQYRCNGTSSKGSDQAIITLRVRSHLA
modifications: extracellular domain C-terminal myc-HA-Flag-6His tag
notes: purified recombinant human EMMPRIN extracellular domain with myc-HA-Flag-6His tag at the C-terminus
Consider B1, for which the MMP-1-inducing effect entry in the assay on MMP-1 expression (added to keratinocytes at 0.025, 0.25 and 2.5 μM, FIG. 7) is recorded as “virtually no MMP-1-inducing effect”. Besides, the “MMP1 expression-accelerating effect of S100A9” value with MMP-1 expression (both soluble EMMPRIN and S100A9 added to keratinocytes, FIG. 7) was “significantly suppressed”. Moreover, in the assay with MMP-1 expression (results not shown), the IL-8 expression entry is “significantly suppressed”, the MMP-10 expression entry is reported as “significantly suppressed” and the TNFα expression entry is recorded as “significantly suppressed”.
